Test results as given in PMC6152455.

Tests used:
[1] = biological target: Human CD16a/FcγRIIIa 158F (human) (UniProt P08637); experiment: SPR
[2] = biological target: Human CD16a/FcγRIIIa 158V (human); experiment: SPR
Chain of Human CD16a/FcγRIIIa 158V (human) (P08637 17-208): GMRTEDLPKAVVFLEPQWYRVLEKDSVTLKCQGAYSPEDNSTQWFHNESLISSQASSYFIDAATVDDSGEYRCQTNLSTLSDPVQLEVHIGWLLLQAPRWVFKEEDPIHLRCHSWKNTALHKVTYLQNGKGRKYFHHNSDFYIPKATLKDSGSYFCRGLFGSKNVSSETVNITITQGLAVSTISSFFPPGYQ

Kd [1]	Kd [2]	Substance
1.63 µM	0.311 µM	T-mab (in-house made trastuzumab biosimilar) (antibody)
2.71 µM	0.818 µM	P-mab (in-house made pertuzumab biosimilar) (antibody)
